The target in test [1] is arsenite oxidase (Aio) from Rhizobium sp. str. NT-26, wild type (Rhizobium sp. str. NT-26).
The target in test [2] is arsenite oxidase (Aio) from Rhizobium sp. str. NT-26 with the AioB-F108A substitution (Rhizobium sp. str. NT-26). As to the kind of experiment: ITC; 750 μM reduced cytochrome c in the syringe injected (1.5 or 2 μL) into 75 μM reduced Aio in the cell; 50 mM Tris-HCl (pH 8), no NaCl, 25 °C; 1:1 binding fit; three enzyme preparations.
Test [3] has as its target arsenite oxidase (Aio) from Rhizobium sp. str. NT-26, wild type (Rhizobium sp. str. NT-26). The test is described as above.

For orientation: pKd means the Kd on a negative log10 scale, so that one unit is a factor of ten. Lower therefore signals a large Kd. As usually defined, the stoichiometry N is the number of molecules, sites or subunits per partner or assembly.

pKd: −log10 of the molar value.

For the substance “horse heart cytochrome c (from UniProt P00004 1-105) (natural protein)”, the KM for cytochrome c, steady-state kinetics of Aio with 2.5 mM arsenite and 0.5-10 μM cytochrome c in test [1] worked out at 1 µM. Further, in test [2], the negative logarithm of the Kd (pKd) was 5.11, the dH (kcal mol^(− 1)) was determined as 3 and the stoichiometry N was 0.82. In test [3], this substance had a pKd of 5.64, a dH (kcal mol^(− 1)) of 6 and a stoichiometry N of 0.85.

The values above are taken from publication PMC5574378.
